Results reported in the supplement of paper PMC9732359.
± gives the uncertainty stated by the source.

Assay: protein stability index of a GFP-peptide fusion (yeast GPS) (PSI 1-4); higher = more stable; sorted into four equal gates, so the index is relative within each strain
Summary of the method: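 Mid-log yeast cultures in leucine-free medium, carrying a pooled plasmid library, were sorted into four equal gates by their GFP/Cherry fluorescence ratio. Each plasmid expressed Cherry along with GFP fused upstream of a tiled 17-residue yeast protein peptide. Plasmids recovered from each gate were PCR-amplified and Illumina-sequenced, with reads assigned to strains by barcodes. The protein stability index was obtained by summing each gate's read frequency weighted by its gate number.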

Sequence	protein stability index (doa10∆)	protein stability index (pdr5∆)	protein stability index (san1∆)	protein stability index (ubr1∆)
IPSLQNNIEENLRLLNS [ECM29]	3.13 ± 0.065	3.17 ± 0.061	3.34 ± 0.055	3.25 ± 0.061
IPYAAKLLFQELLSMNI [RET1]	1.55 ± 0.1	1.46 ± 0.084	1.31 ± 0.16	1.35 ± 0.056
IQAGKFDNKSTSEEQEA [SNF2]	3.28 ± 0.068	3.36 ± 0.16	2.84 ± 0.17	2.94 ± 0.12
IQEANSVDMSALKDPQT [RIP1]		3.43 ± 0.21		3.26 ± 0.077
IQNDIYLNDLMITKRIL [RPN12]	2.34 ± 0.18	2.76 ± 0.14	2.72 ± 0.25	2.65 ± 0.12
IQQHARYDCSFCGKKTV [RPL43A]	2.71 ± 0.23	2.94 ± 0.1	2.81 ± 0.065	3.06 ± 0.066
IQSSLMTNLTYFLHLSV [YCS4]	2.15 ± 0.065	1.94 ± 0.049	1.89 ± 0.085	2.44 ± 0.058
IQVAAFIYGMSAKDHPK [PRP8]	3.24 ± 0.091	2.98 ± 0.12	3.19 ± 0.082	3.17 ± 0.12
IQVLTEASSLGYLDDSE [IRR1]	1.3 ± 0.068	1.56 ± 0.057	1.76 ± 0.1	1.42 ± 0.055
IRDPLTQTGLLQDLEEA [RPC82]	3.31 ± 0.23	3.2 ± 0.17	3.15 ± 0.28	
IRDSIPQMDSFDKDLER [DIS3]	3.15 ± 0.092	3.32 ± 0.1	3.19 ± 0.061	3.01 ± 0.12
IREGQNQKIPDNVIVIN [SIR3]	2.9 ± 0.049	3.12 ± 0.065	2.98 ± 0.057	3 ± 0.046
IREIDVTGGKKALVLFV [RPS7B]	1.3 ± 0.085	1.5 ± 0.1	1.3 ± 0.21	1.23 ± 0.063
IREINYTMSNHGMSVDP [RPO31]	2.87 ± 0.16	3.03 ± 0.2	3.03 ± 0.11	3.06 ± 0.13
IRGKILTGTVVSTKMHR [RPS11A]	3 ± 0.066	2.99 ± 0.051	2.79 ± 0.052	2.9 ± 0.039
IRKDPNNLSNQLETLTG [CSE2]	2.87 ± 0.11	2.91 ± 0.098	2.68 ± 0.11	2.77 ± 0.095
IRNCATEAGFFAIRDDR [RPT4]	2.82 ± 0.062	3.24 ± 0.079	2.78 ± 0.097	2.91 ± 0.042
IRTILVNIHHLLNEYRP [MED7]	2.21 ± 0.064	2 ± 0.065	1.65 ± 0.12	1.58 ± 0.053
IRYNAKRRNWRRTKMNI [RPL39]	3.23 ± 0.095	3.23 ± 0.093	3.07 ± 0.095	3.32 ± 0.057
ISAEDRADTDLAMNDDD [SNF2]	3.44 ± 0.23	3.45 ± 0.14	3.35 ± 0.069	3.32 ± 0.085
ISAFTQFLRLIFVSILS [ARP9]	2.17 ± 0.065	1.88 ± 0.1	2.9 ± 0.12	1.22 ± 0.027
ISCPLIGVIQLAHYVVT [FAS1]	1.57 ± 0.072	1.2 ± 0.041	1.24 ± 0.093	1.27 ± 0.042
ISDYQQLESIYFRILLP [SWI1]	2.24 ± 0.045	2.33 ± 0.037	2.06 ± 0.049	2.34 ± 0.065
ISENTFPNGFKNFENGP [RPC34]	2.96 ± 0.081	3.03 ± 0.069	2.91 ± 0.052	2.57 ± 0.034
ISFRSNLLKNFISSNDA [SNF6]	2.77 ± 0.12	1.75 ± 0.086	2.35 ± 0.21	2.27 ± 0.074
ISKDCSAFACKTDEVII [BRR2]	2.99 ± 0.12	3.38 ± 0.082	3.44 ± 0.088	2.88 ± 0.073
ISKTTLTLDPRYIWRSL [RPN3]	2.75 ± 0.1	2.61 ± 0.082	2.5 ± 0.085	2.6 ± 0.15

Sequence	protein stability index (doa10∆)	protein stability index (pdr5∆)	protein stability index (san1∆)	protein stability index (ubr1∆)
ISPESVFGTLGELIKVN [SMC3]	2.15 ± 0.06	2.25 ± 0.078	1.84 ± 0.096	1.86 ± 0.036
ISSRTFGQRAVLKFAAH [RPS0A]	2.35 ± 0.095	2.57 ± 0.098	2.69 ± 0.089	2.49 ± 0.11
ISTLQVKLYGREGSSAR [RPB2]	2.71 ± 0.17	2.77 ± 0.1	2.77 ± 0.18	2.8 ± 0.086
ISTSDVTRIINSSEIQS [RPL4A]	2.39 ± 0.04	2.64 ± 0.054	2.34 ± 0.071	2.58 ± 0.043
ISVNSSSFSLTFFPRCI [POP1]	2.55 ± 0.03	2.66 ± 0.035	2.44 ± 0.039	2.44 ± 0.031
ITFHPKIRARSITLQGD [SMC2]	2.48 ± 0.049	2.56 ± 0.045	2.69 ± 0.051	2.48 ± 0.043
ITFLQTLYIGNTANGRP [ECM29]	2.04 ± 0.085	2.73 ± 0.09	2.6 ± 0.16	1.97 ± 0.12
ITGGIIEETSAAIKDLD [RRP43]	3.13 ± 0.2			
ITLENITRLCQTLGLES [MED1]	2.07 ± 0.04	2.28 ± 0.044	1.91 ± 0.055	1.89 ± 0.037
ITPMNDDQCMLITTYSK [SIN4]	1.93 ± 0.064	2.41 ± 0.075	1.98 ± 0.22	1.99 ± 0.038
ITQDGKFAYKIDKITDG [YMR129W/POM152]	2.9 ± 0.087	3.03 ± 0.073	2.81 ± 0.063	2.85 ± 0.051
ITSGGFLLKAYINVSRG [SRB5]	2.23 ± 0.17	2.48 ± 0.12	2.32 ± 0.15	2.53 ± 0.15
ITSWYENHNKGKLWKDV [QCR9]	2.81 ± 0.21	3.14 ± 0.23	3.3 ± 0.1	3.21 ± 0.13
ITTFVKRSTVPLNDGFV [YML103C/NUP188]	2.37 ± 0.066	2.32 ± 0.093	1.91 ± 0.11	2.35 ± 0.053
ITYDKQEPSASQVKDSV [SRP68]	3.14 ± 0.046	3.12 ± 0.062	2.98 ± 0.053	2.99 ± 0.071
IVDFTLPPPPPPPGLDE [PRP8]	3.15 ± 0.05	3.1 ± 0.048	3.2 ± 0.038	3.14 ± 0.039
IVGVLQDDADPMVSVMK [RPT2]	1.99 ± 0.057	2.31 ± 0.057	2.49 ± 0.11	2.26 ± 0.056
IVHDDPASDDILDNINH [ITC1]	2.98 ± 0.072	3.02 ± 0.062	3.04 ± 0.09	3.25 ± 0.058
IVKGNIIDEIKCIPKKG [POP4]	1.79 ± 0.05	1.9 ± 0.05	2.29 ± 0.06	2.09 ± 0.045
IVLLDDEGKEIPATIFD [TAF14]	2.82 ± 0.06	3.07 ± 0.048	3.04 ± 0.035	3.06 ± 0.05
IVLSDQTQEFFLSSFDD [YJL039C/NUP192]	2.91 ± 0.12	2.89 ± 0.093	2.92 ± 0.057	3.25 ± 0.13
IVMVWLKENTYVMERPK [YDL116W/NUP84]	1.46 ± 0.064	1.81 ± 0.06	1.43 ± 0.14	1.4 ± 0.056
IVNHEQDLPKINDKRAN [SRB4]	3.28 ± 0.19	3.21 ± 0.11	2.96 ± 0.098	3.08 ± 0.08
IVPDLIINPHAIPSRMT [RPB2]	1.81 ± 0.048	2 ± 0.042	1.75 ± 0.068	2.16 ± 0.047
IVQFTYGGDGLDPLEME [RPO31]		3.09 ± 0.2	2.55 ± 0.27	
IVWRFISENTFPNGFKN [RPC34]	1.84 ± 0.06	2.05 ± 0.042	2.06 ± 0.077	2.33 ± 0.046
